Measurements: PMC9633773, “Discovering cell-active BCL6 inhibitors: effectively combining biochemical HTS with multiple biophysical techniques, X-ray crystallography and cell-based assays” (Scientific Reports, 2022)
One block for each binder: values may come before it. Ends that are not written are not given here.

Legend:
Settings in all cases: both partners purified
[1] = biological target: T1, BCL6 BTB domain (BCL6 5-129, tag removed by HRV-3C protease) (human, UniProt P41182 5-129); assay: fluorescence polarisation; competition: 10 nM BCOR-AF633, 3 µM BCL6 BTB, unlabelled peptide varied; 20 mM Hepes/NaOH pH 8.0, 150 mM NaCl, 0.5 mM TCEP, 0.05% Tween 20, 1-2% DMSO; 2 h at room temperature
[2] = biological target: T1, BCL6 BTB domain (BCL6 5-129, tag …); assay: thermal shift assay; 10 µM BCL6 BTB, Sypro Orange, sodium acetate pH 6, 100 mM NaCl, 0.5 mM TCEP; 200 µM BCOR control peptide
[3] = biological target: T2, BCL6 BTB domain (BCL6 5-129, tag removed by HRV-3C protease) (human, UniProt P41182 5-129); assay: fluorescence polarisation; direct binding of the BCOR-AF633 probe to BCL6 BTB, FP KD (Figure S1A)
[4] = biological target: Trx-6His-HRV3C-BCL6 (Thioredoxin-6His-tagged BCL6 BTB, uncleaved) (human, UniProt P41182 5-129); assay: as above
[5] = biological target: T2, BCL6 BTB domain (BCL6 5-129, tag …); assay: fluorescence polarisation; competition: 10 nM BCOR-AF633, 3 µM BCL6 BTB, unlabelled peptide varied; 20 mM Hepes/NaOH pH 8.0, 150 mM NaCl, 0.5 mM TCEP, 0.05% Tween 20, 1-2% DMSO; 2 h at room temperature; remark: listed apart in the source

IC50 [1]: 13 ± 1 µM
B1: unlabelled BCOR peptide (17 residue BCOR peptide) (peptide)
chain: RSEIISTAPSSWVVPGP
modifications: Terminal capping of the unlabelled peptide is not printed. Limits come from the UniProt BCL6-interaction region 498-514, which is 17 residues and matches the printed probe RSEIISTAPSSWVVPGP without …
ΔTm with 200 µM peptide [2]: 6.5 °C

Kd [3]: 1.7 ± 0.3 µM | Kd [4]: 1.74 µM
B2: Alexa Fluor 633-conjugated BCOR peptide (RSEIISTAPSSWVVPGP-Cys(AF633)-amide) (peptide)
peptide: RSEIISTAPSSWVVPGPC(Alexa Fluor 633 C5 maleimide)-NH2
notes: added C-terminal cysteine that carries the dye; also called BCOR-AF633; BCOR-A633; source: synthetic peptide, bought: Cambridge Research Biochemicals

IC50 [5]: 16 ± 6 µM
B3: SMRT peptide (EGLVATVKEAGRSIHEIPR) (peptide)
peptide: EGLVATVKEAGRSIHEIPR
notes: also called SMRT control peptide; unlabelled SMRT peptide; source: synthetic peptide, bought: Pepceuticals Ltd
